This passage reports Kd, koff and kon results from US20220363763A1 (ABL BIO, published 2022).

Residue numbers refer to the chain shown, from its start.

The labels stand for the following.
T1: recombinant his-tag human LAG3-ECD protein (human, UniProt P18627 23-450)
T1 construct: extracellular domain; not shown: his tag
T1 sequence (looked up): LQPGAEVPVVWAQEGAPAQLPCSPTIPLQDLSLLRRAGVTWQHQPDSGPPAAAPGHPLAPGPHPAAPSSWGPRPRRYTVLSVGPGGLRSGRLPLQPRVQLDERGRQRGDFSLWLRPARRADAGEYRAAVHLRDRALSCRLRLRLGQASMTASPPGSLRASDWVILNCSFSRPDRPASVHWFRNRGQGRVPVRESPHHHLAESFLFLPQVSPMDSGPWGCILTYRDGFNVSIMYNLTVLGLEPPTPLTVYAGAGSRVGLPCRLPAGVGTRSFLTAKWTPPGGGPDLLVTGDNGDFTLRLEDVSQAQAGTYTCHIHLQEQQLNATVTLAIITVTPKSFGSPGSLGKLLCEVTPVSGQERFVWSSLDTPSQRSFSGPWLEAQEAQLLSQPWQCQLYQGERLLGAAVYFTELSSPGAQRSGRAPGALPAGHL

T2: human LAG3 (construct not stated) (human, UniProt P18627 23-450, limits assumed)
T2 construct: also called human LAG3 protein; antigen
T2 sequence (looked up): T1 sequence (looked up)

B1: Hu1210-40 (antibody, V domains shown)
VH: EVQLVESGGGLVQPGGSLRLSCAASGFTFSSYDMSWVRQAPGKSLEWVATISEGGGYIYYSDSVKGRFTISRDNAKNSLYLQMNSLRDEDTAVYICAREFGKRYALDYWGQGTTVTVSS
VL: DIQMTQSPSSLSASVGDRVTITCKASQDVTPAVAWYQQKPGKAPKLLIYSTSSRYTGVPSRFSGSGSGTDFTFTISSLQPEDIATYYCQQHYTTPLTFGQGTKLEIK
notes: Hu1210 VH.4c x Vk.1; human gamma 1 / kappa constant domains
B2: Hu1210-28 (antibody, V domains shown)
VH: B1 VH with S44G, E53D, D88A, T114L
VL: DIQMTQSPSSLSASVGDRVTITCKASQDVTPAVAWYQQKPGKAPKLLIYSTSSRYTGVPDRFTGSGSGTDFTLTISSLQPEDFATYYCQQHYTTPLTFGQGTKLEIKR
notes: Hu1210 VH.5a x Vk.2a; human gamma 1 / kappa constant domains
B3: Hu1210-42 (antibody, V domains shown)
VH: B1 VH with E53D, G54V
VL: B1 VL
notes: Hu1210 VH.4e x Vk.1; human gamma 1 / kappa constant domains
B4: 147H 3421 (antibody, V domains shown)
VH: EVQLVQSGAEVKKPGASVKVSCKASGYTFTNYWLGWIKQAPGQGLEWIGDIYPGGDYINYNEKFKGKATLTADTSISTAYMELSRLRSDDTAVYYCARPNLPKDHWGQGTTVTVSS
VL: DIVMTQSPLSLPVTPGEPASISCRSSKSLLHSNAITYLYWYLQKPGQSPQLLIYQVSNLASGVPDRFSGSGSGTDFTLKISRVEAEDVGVYYCAQNLELPWTFGGGTKVEIK
B5: 147H 3811 (antibody, V domains shown)
VH: B4 VH with T28L, N59V
VL: B4 VL with S61T, A94G, N96Y
B6: 147H 3808 (antibody, V domains shown)
VH: B4 VH with N59V
VL: B4 VL with A94G, N96Y
B7: 147H 3794 (antibody, V domains shown)
VH: B4 VH with T28L, N59V, K103G, H105Y
VL: B4 VL with N96Y
B8: 147H 3809 (antibody, V domains shown)
VH: B4 VH with T28L, N59V
VL: B4 VL with N96Y
B9: 147H 3791 (antibody, V domains shown)
VH: B4 VH with N59V, K103G, H105Y
VL: B4 VL with A94G
B10: 147H 3550 (antibody, V domains shown)
VH: B4 VH
VL: B4 VL with N96Y
B11: 147H 3508 (antibody, V domains shown)
VH: B4 VH
VL: B4 VL with A94G
B12: 147H 3549 (antibody, V domains shown)
VH: B4 VH
VL: B4 VL with N96Y, L99E
B13: 147H 3790 (antibody, V domains shown)
VH: B4 VH
VL: B4 VL with S61T
B14: 147H 3792 (antibody, V domains shown)
VH: B4 VH with N59V, K103G, H105Y
VL: B4 VL with N96Y
B15: 147H 3793 (antibody, V domains shown)
VH: B4 VH with T28L, N59V, K103G, H105Y
VL: B4 VL with A94G
B16: 147H 3669 (antibody, V domains shown)
VH: B4 VH with T28L, N59V, K103G, H105Y
VL: B4 VL
B17: 147H 3663 (antibody, V domains shown)
VH: B4 VH with T30E, N59V, K103G, H105Y
VL: B4 VL with S61R
B18: 147H-11 (antibody, V domains shown)
VH: B4 VH with I37V, K38R, I48M, K103G, H105Y
VL: B4 VL with A34G
notes: Common light chain; human gamma 1 / kappa constant domains
B19: 147H-1 (antibody, V domains shown)
VH: B4 VH with E1Q, I37V, K38R, I48M, K67R, A68V, L70M, A72R, K103G, H105Y
VL: B4 VL with A34G
B20: 147H-8 (antibody, V domains shown)
VH: B4 VH with I37V, K38R, I48M, K67R, A68V, L70M, A72R, K103G, H105Y
VL: B4 VL with A34G
notes: as for B18
B21: 147H-2 (antibody, V domains shown)
VH: B4 VH with E1Q, I37V, K38R, I48M, K67R, A68V, L70M, K103G, H105Y
VL: B4 VL with A34G
notes: as for B18
B22: 147H-12 (antibody, V domains shown)
VH: B4 VH with I37V, K38R, K103G, H105Y
VL: B4 VL with A34G
notes: as for B18
B23: 147H-4 (antibody, V domains shown)
VH: B4 VH with E1Q, I37V, K38R, I48M, K103G, H105Y
VL: B4 VL with A34G
notes: as for B18
B24: 147H-5 (antibody, V domains shown)
VH: B4 VH with E1Q, I37V, K38R, K103G, H105Y
VL: B4 VL with A34G
notes: as for B18
B25: 147H-9 (antibody, V domains shown)
VH: B4 VH with I37V, K38R, I48M, K67R, A68V, L70M, K103G, H105Y
VL: B4 VL with A34G
notes: as for B18
B26: 147H-10 (antibody, V domains shown)
VH: B4 VH with I37V, K38R, I48M, K67R, A68V, K103G, H105Y
VL: B4 VL with A34G
notes: as for B18
B27: 147H-3 (antibody, V domains shown)
VH: B4 VH with E1Q, I37V, K38R, I48M, K67R, A68V, K103G, H105Y
VL: B4 VL with A34G
notes: as for B18

One assay deals with T3, human PD-L1-his taq protein (human, UniProt Q9NZQ7 19-239, limits assumed).
T3 construct: also called recombinant PD-L1 protein; recombinant human PD-L1; not shown: his tag
T3 sequence (Q9NZQ7 19-239 limits assumed): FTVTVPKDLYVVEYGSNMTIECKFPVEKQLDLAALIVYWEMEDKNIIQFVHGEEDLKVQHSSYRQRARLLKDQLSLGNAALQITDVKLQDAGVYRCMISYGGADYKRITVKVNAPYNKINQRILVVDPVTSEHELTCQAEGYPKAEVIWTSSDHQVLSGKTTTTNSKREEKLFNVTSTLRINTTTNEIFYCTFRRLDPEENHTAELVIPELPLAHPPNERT
In words: SPR Biacore T200, antibody captured, PD-L1-his injected. The procedure:
The binding of the humanized antibodies to recombinant PD-L1 protein (human PD-L1-his taq) was tested by BIACORE™ using a capture method. The HL1210-3 mouse mAb were captured using anti-mouse Fc antibody coated on a CM5 chip. A series dilution of human PD-L1-his taq protein was injected over captured antibody for 3 mins at a flow rate of […]. The antigen was allowed to dissociate for 900 s. All the experiments were carried out on a Biacore T200.
(SPR reads the build-up and loss of mass on a sensor chip optically.)
By Kd is commonly meant a measure of binding affinity in units of concentration. Broadly, the koff is the rate constant with which the complex falls apart. For orientation: kon means a measure of how fast the partners come together. In turn, B1 registered a Kd of 1.49 nM, a koff of 0.000131 s⁻¹ and a kon of 87700 M⁻¹ s⁻¹.
In the case of B2, the affinity, expressed as Kd, was 0.838 nM; the koff is 0.000108 s⁻¹; the kon was 129000 M⁻¹ s⁻¹.
For B3, in that order: 0.867 nM, 7.53e-05 s⁻¹ and 86800 M⁻¹ s⁻¹.

In a further assay the target is T1, recombinant his-tag human LAG3-ECD …. In words: SPR Biacore T200, capture method as Example 2.7.
Consider B4, for which the Kd is 8.1 nM, the koff was 0.012 s⁻¹ and the on-rate (kon) came to 1.4e+06 M⁻¹ s⁻¹.
For B5, in that order: 0.59 nM, 0.0029 s⁻¹ and 4.9e+06 M⁻¹ s⁻¹.
B6: the Kd turned out to be 0.75 nM, the koff was determined as 0.0032 s⁻¹ and the kon was determined as 4.3e+06 M⁻¹ s⁻¹.
For B7, in that order: 0.72 nM, 0.0027 s⁻¹ and 3.7e+06 M⁻¹ s⁻¹.
Take B8: the Kd stood at 0.47 nM, the koff amounted to 0.002 s⁻¹ and the on-rate (kon) was found to be 4.3e+06 M⁻¹ s⁻¹.
For B9, in that order: 1.2 nM, 0.0025 s⁻¹ and 2.1e+06 M⁻¹ s⁻¹.
Take B10: the Kd is 0.98 nM, the off-rate (koff) was determined as 0.0085 s⁻¹ and the kon stood at 8.7e+06 M⁻¹ s⁻¹.
B11: the dissociation constant (Kd) amounted to 1.4 nM, the koff came out at 0.0042 s⁻¹ and the kon was 2.9e+06 M⁻¹ s⁻¹.
For B12, in that order: 0.92 nM, 0.0068 s⁻¹ and 7.4e+06 M⁻¹ s⁻¹.
For B13, in that order: 5.9 nM, 0.0045 s⁻¹ and 770000 M⁻¹ s⁻¹.
For B14, in that order: 0.59 nM, 0.0029 s⁻¹ and 4.9e+06 M⁻¹ s⁻¹.
Regarding B15, the Kd amounted to 1.3 nM, the koff came out at 0.0023 s⁻¹ and the kon stood at 1.8e+06 M⁻¹ s⁻¹.
In the case of B16, the dissociation constant Kd stood at 8.8 nM, the dissociation rate constant (koff) was 0.0063 s⁻¹ and the kon was determined as 720000 M⁻¹ s⁻¹.
In the case of B17, the Kd was 6.8 nM, the koff came out at 0.0054 s⁻¹ and the on-rate (kon) was 790000 M⁻¹ s⁻¹.

The target in the next assay is T2, human LAG3 (construct not stated). In words: BLI Octet Red 96, affinity ranking.
The molecule B18 registered a dissociation constant Kd of 42.2 nM, an off-rate (koff) of 0.00451 s⁻¹ and a kon of 107000 M⁻¹ s⁻¹.
For B19, in that order: 35.4 nM, 0.00386 s⁻¹ and 109000 M⁻¹ s⁻¹.
For B20, in that order: 32.3 nM, 0.00533 s⁻¹ and 165000 M⁻¹ s⁻¹.
B21 showed a Kd of 31.6 nM, a koff of 0.00314 s⁻¹ and a kon of 99300 M⁻¹ s⁻¹.
The molecule B22 showed an equilibrium dissociation constant (Kd) of 55.2 nM, a koff of 0.00344 s⁻¹ and an association rate constant (kon) of 62300 M⁻¹ s⁻¹.
For B23, in that order: 39.8 nM, 0.00343 s⁻¹ and 86200 M⁻¹ s⁻¹.
For B24, in that order: 31.3 nM, 0.003 s⁻¹ and 95800 M⁻¹ s⁻¹.
For B25, in that order: 66.4 nM, 0.00448 s⁻¹ and 67400 M⁻¹ s⁻¹.
Molecule B26 registered an equilibrium dissociation constant (Kd) of 82.3 nM, a dissociation rate constant (koff) of 0.00404 s⁻¹ and a kon of 49100 M⁻¹ s⁻¹.
For B27, in that order: 36.5 nM, 0.00338 s⁻¹ and 92500 M⁻¹ s⁻¹.
